The source of these data is paper PMC6700787, “Sharpin suppresses β1-integrin activation by complexing with the β1 tail and kindlin-1” (Cell Communication and Signaling : CCS, 2019).

The target in one assay is T1, GST-fused kindlin-1 (Homo sapiens (Human), UniProt Q9BQL6).
T1 chain: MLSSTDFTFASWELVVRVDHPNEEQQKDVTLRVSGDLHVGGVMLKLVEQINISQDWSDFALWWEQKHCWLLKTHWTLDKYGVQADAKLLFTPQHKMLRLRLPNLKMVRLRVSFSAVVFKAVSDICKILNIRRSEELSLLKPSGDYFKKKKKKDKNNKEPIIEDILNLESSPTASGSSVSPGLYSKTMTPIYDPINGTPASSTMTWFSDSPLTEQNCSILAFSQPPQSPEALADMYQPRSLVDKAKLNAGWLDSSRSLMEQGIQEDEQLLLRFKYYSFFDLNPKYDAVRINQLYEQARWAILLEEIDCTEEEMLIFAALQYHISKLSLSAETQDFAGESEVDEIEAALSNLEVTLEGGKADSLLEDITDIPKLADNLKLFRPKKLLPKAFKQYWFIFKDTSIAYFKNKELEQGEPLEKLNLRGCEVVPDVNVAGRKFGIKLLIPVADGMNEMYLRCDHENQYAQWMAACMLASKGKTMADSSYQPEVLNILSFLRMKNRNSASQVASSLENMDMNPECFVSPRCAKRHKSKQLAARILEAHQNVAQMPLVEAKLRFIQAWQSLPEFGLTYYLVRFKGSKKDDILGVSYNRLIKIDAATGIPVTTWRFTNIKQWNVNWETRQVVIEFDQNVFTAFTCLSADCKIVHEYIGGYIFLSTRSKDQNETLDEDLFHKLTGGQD
The assay can be described thus: GST pull-down.

The target of assay [1] is T2, GST-fused integrin β1 cytoplasmic tail (Homo sapiens (Human), UniProt P05556).
T2 chain: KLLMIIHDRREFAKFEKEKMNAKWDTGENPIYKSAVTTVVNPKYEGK
The assay can be described thus: GST pull-down.

Assay [2] addresses T3, N-terminus of sharpin (SH-N, 1-217 amino acids), his-tagged (UniProt Q9H0F6 1-217).
T3 construct: also called His-SH-N; N-terminal fragment of sharpin; source: E. coli Rosetta DE3, purified (Ni-NTA agarose)
T3 sequence (looked up): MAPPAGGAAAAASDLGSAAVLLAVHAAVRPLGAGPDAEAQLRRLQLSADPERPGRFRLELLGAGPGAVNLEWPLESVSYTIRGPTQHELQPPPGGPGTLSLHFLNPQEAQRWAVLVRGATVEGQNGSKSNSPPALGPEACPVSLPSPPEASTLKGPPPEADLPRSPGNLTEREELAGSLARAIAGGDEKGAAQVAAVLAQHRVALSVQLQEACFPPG
The assay can be described thus: SPR; Biacore 8K; N-terminal fragment of sharpin coupled to a CM5 chip; integrin β1 CT or β3 CT injected at 2.5, 5, 10, 20 and 40 μM; room temperature, PBS. Conditions: both partners purified. (SPR reads the build-up and loss of mass on a sensor chip optically.)

B1: C-terminus of sharpin (SH-C, 217-387 amino acids), his-tagged (protein)
chain: GPIRLQVTLEDAASAASAASSAHVALQVHPHCTVAALQEQVFSELGFPPAVQRWVIGRCLCVPERSLASYGVRQDGDPAFLYLLSAPREAPATGPSPQHPQKMDGELGRLFPPSLGLPPGPQPAASSLPSPLQPSWSCPSCTFINAPDRPGCEMCSTQRPCTWDPLAAAST
For the molecule B1, the binding result with GST-fused kindlin-1 is on record as “binds”; in assay [1], “no binding”.

B2: integrin β1 CT protein (NMR and SPR samples) (domain or fragment, UniProt P05556 752-798, looked up)
chain: T2 chain
notes: Integrin β1 cytoplasmic tail (CT); 15N-labelled in the HSQC experiment, unlabelled analyte in SPR; The only vector named for the tails is pGST-1; also called ^15N-labeled β1 CT; the integrin β1 CT protein
As usually defined, the Kd is the constant that tells how readily two partners part at equilibrium. Lower therefore signals higher affinity. Regarding B2, in assay [2], the Kd stood at 40 µM.

B3: his-tagged kindlin-1 (protein)
chain: T1 chain
In the case of B3, in assay [1], the binding result is recorded as “binds”.
